Bridge positions count the residues as written; N and C are the ends. Square brackets hold non-standard residues; d marks the D form. Ends that are not written are not given here. Orn = NCCC[C@H](N)C(=O)O; Dab = NCC[C@H](N)C(=O)O; Dap = NC[C@H](N)C(=O)O
B1: c[Hydantoin(C(O)-(Glu-D-Ala))-His-D-Phe-Arg-Trp-Dap]-NH2 (peptide)
peptide: E[dA]H[dF]RW[Dap]-NH2
modifications: lactam 1-7 (inferred); also: residues 1-2 joined in a hydantoin ring (C(O))
B2: c[Hydantoin(C(O)-(Asp-D-Ala))-His-D-Phe-Arg-Trp-Orn]-NH2 (peptide)
peptide: D[dA]H[dF]RW[Orn]-NH2
modifications: lactam 1-7; also: residues 1-2 joined in a hydantoin ring (C(O))
B3: c[Hydantoin(C(O)-(Asp-D-Ala))-His-D-Phe-Arg-Trp-Dap]-NH2 (peptide)
peptide: D[dA]H[dF]RW[Dap]-NH2
modifications: lactam 1-7; also: residues 1-2 joined in a hydantoin ring (C(O))
B4: c[Hydantoin(C(O)-(Glu-D-Ala))-His-D-Phe-Arg-Trp-Orn]-NH2 (peptide)
peptide: E[dA]H[dF]RW[Orn]-NH2
modifications: lactam 1-7 (inferred); also: residues 1-2 joined in a hydantoin ring (C(O))
B5: c[Hydantoin(C(O)-(Glu-D-Ala))-His-D-Phe-Arg-Trp-Dab]-NH2 (peptide)
peptide: E[dA]H[dF]RW[Dab]-NH2
modifications: lactam 1-7; also: hydantoin ring from C(O) with Glu1-D-Ala2
B6: c[Hydantoin(C(O)-(Glu-D-Ala))-His-D-Phe-Arg-Trp-Lys]-NH2 (peptide)
peptide: E[dA]H[dF]RWK-NH2
modifications: lactam 1-7 (inferred); also: hydantoin ring from C(O) with Glu1-D-Ala2
B7: Hydantoin(C(O)-(Gly-D-Arg))-c(Cys-D-Ala-His-D-Phe-Arg-Trp-Cys)-NH2 (peptide)
peptide: G[dR]C[dA]H[dF]RWC-NH2
modifications: bridge N-2 via C(O) hydantoin; disulfide 3-9; not fully specified

target: hMC1-R (human) (UniProt Q01726); test: cell-based or functional assay
Sequence (Q01726 whole entry): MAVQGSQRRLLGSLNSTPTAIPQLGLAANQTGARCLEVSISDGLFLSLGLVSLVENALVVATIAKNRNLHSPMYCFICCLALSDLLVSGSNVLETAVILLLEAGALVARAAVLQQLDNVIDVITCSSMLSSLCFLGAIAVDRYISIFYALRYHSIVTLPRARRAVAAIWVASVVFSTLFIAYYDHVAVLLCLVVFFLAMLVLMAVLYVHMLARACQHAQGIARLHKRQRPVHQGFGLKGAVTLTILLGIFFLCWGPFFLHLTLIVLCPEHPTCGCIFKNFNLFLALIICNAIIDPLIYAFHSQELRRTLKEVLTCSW

| cAMP EC50 | Binder |
| --- | --- |
| 56.7 nM | B1 |
| 56.6 nM | B2 |

target: hMC3-R (human) (UniProt P41968); test: cell-based or functional assay
Sequence (P41968 whole entry): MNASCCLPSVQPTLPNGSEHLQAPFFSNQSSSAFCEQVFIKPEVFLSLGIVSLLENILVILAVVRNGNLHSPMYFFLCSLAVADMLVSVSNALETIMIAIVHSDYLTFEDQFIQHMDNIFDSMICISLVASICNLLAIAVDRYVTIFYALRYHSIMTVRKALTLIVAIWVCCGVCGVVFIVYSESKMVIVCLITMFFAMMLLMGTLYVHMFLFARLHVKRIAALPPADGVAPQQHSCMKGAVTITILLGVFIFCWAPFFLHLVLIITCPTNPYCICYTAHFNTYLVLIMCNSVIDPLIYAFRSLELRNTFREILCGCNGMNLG

| cAMP EC50 | Binder |
| --- | --- |
| 49.3 nM | B3 |
| 39.2 nM | B4 |
| 18.2 nM | B1 |
| 88.6 nM | B2 |

target: hMC4-R (human) (UniProt P32245); test: cell-based or functional assay
Sequence (P32245 whole entry): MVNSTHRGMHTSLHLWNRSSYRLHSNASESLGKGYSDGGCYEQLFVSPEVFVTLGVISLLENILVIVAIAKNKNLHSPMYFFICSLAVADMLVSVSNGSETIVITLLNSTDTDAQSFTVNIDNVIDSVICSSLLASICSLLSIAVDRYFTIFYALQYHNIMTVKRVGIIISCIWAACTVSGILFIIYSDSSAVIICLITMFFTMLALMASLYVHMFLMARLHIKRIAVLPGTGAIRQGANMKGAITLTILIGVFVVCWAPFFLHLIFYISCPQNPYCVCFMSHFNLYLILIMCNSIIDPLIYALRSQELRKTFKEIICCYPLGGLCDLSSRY

| cAMP EC50 | Binder |
| --- | --- |
| 2.12 nM | B3 |
| 4.94 nM | B4 |
| 0.182 nM | B1 |
| 4.5 nM | B2 |

target: hMC5-R (human) (UniProt P33032); test: cell-based or functional assay
Sequence (P33032 whole entry): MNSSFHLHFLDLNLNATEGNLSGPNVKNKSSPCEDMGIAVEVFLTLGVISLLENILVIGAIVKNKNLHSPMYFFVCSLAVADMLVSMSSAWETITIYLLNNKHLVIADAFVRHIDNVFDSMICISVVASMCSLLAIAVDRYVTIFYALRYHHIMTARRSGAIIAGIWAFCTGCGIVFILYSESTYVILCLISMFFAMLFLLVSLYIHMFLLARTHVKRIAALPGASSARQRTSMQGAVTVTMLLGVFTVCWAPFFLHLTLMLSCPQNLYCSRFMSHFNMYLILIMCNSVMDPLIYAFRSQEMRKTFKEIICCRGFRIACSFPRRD

| cAMP EC50 | Binder |
| --- | --- |
| > 10000 nM | B1 |
| 9300 nM | B2 |

target: human melanocortin receptor subtype 1 (hMC1-R) (human) (UniProt Q01726); test: [125I]-NDP-α-MSH competition, membranes
Sequence (Q01726 whole entry): as the sequence (Q01726 whole entry) above

| Ki | Binder |
| --- | --- |
| 28 nM | B5 |
| 72.6 nM | B6 |
| 66.6 nM | B3 |
| 60.4 nM | B4 |
| 16.4 nM | B1 |
| 3.51 nM | B7 |
| 37.7 nM | B2 |

target: human melanocortin receptor subtype 3 (hMC3-R) (human) (UniProt P41968); test: [125I]-NDP-α-MSH competition, membranes
Sequence (P41968 whole entry): as the sequence (P41968 whole entry) above

| Ki | Binder |
| --- | --- |
| 90.5 nM | B5 |
| 1920 nM | B6 |
| 1820 nM | B3 |
| 2840 nM | B4 |
| 863 nM | B1 |
| 29.2 nM | B7 |
| 576 nM | B2 |

target: human melanocortin receptor subtype 4 (hMC4-R) (human) (UniProt P32245); test: [125I]-NDP-α-MSH competition, membranes
Sequence (P32245 whole entry): as the sequence (P32245 whole entry) above

| Ki | Binder |
| --- | --- |
| 12.7 nM | B5 |
| 45.2 nM | B6 |
| 19.9 nM | B3 |
| 52.4 nM | B4 |
| 4.97 nM | B1 |
| 6.04 nM | B7 |
| 7.81 nM | B2 |

target: human melanocortin receptor subtype 5 (hMC5-R) (human) (UniProt P33032); test: [125I]-NDP-α-MSH competition, membranes
Sequence (P33032 whole entry): as the sequence (P33032 whole entry) above

| Ki | Binder |
| --- | --- |
| 877 nM | B5 |
| 914 nM | B7 |
| 6400 nM | B2 |
